Experimental data: article PMC4072690 (PLoS ONE, 2014)

B1: Ab64 mouse monoclonal antibody (IgG2a,κ) specific for FtGroEL (antibody, V domains shown)
VH: EVQLLESGPELVRLGASVKVSCKASGYSFTDYNMYWVKQSHGKSLEWIGYIDPYNGDASYNQKFKGKATLTVDKSSSTAFMHLNSLTSEDSAVYYCARTGYYYGRSYAMDYWGQGTSVTVSS
VL: DIVMTQAAPSVPVTPGESVSISCRSSKSLLHSNGNTYLYWFLQRPGQSPQLLIYRMSNLASGVPDRFSGSGSGTAFTLRISKVEAEDVGVYYCMQHLEYPYTFGGGTKLDVK
notes: also called Ab64 IgG
B2: Ab64 Fab (Fab, V domains shown)
VH: B1 VH
VL: B1 VL
notes: also called Fab fragment of Ab64; source: cleavage of purified Ab64 IgG with the Pierce Fab Preparation Kit
B3: Ab53 mouse monoclonal antibody (IgG2a,κ) specific for FtGroEL (antibody, V domains shown)
VH: EVKLLESGGGLVQPGGSMKLSCVASGFTFSIFWMNWVRQSPEKGLEWVAEVRLKSNNYATHYAESVKGRFTISRDDSKSGVYLQMNNLRAEDTGIYYCTRGYYGSNYGEYWGQGTTLTVSS
VL: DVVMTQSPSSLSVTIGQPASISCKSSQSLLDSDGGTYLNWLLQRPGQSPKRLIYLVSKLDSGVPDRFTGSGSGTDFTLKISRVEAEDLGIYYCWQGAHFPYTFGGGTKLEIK
notes: also called Ab53 IgG
B4: Ab53 Fab (Fab, V domains shown)
VH: B3 VH
VL: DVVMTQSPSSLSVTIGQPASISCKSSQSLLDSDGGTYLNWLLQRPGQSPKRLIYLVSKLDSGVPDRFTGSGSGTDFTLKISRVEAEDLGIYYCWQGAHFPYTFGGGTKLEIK
notes: also called Fab fragment of Ab53; source: cleavage of purified Ab53 IgG with the Pierce Fab Preparation Kit

Assays:
[1] = biological target: T1, Escherichia coli GroEL, endogenous (Escherichia coli TG1 (K-12) and BL21, UniProt P0A6F5); assay: ELISA; conditions: one partner purified
T1 construct: also called EcGroEL

[2] = biological target: Francisella tularensis LVS recombinant GroEL with N-terminal His tag (Francisella tularensis subsp. …, UniProt P94798, strain); assay: ELISA; conditions: one partner purified
[3] = biological target: T2, GroEL of Francisella tularensis SchuS4, endogenous (Francisella tularensis subsp. …, UniProt Q5NEE1); assay: ELISA; conditions: one partner purified
T2 construct: source: endogenous, SchuS4 NP40 lysate

[4] = biological target: T3, purified FtGroEL used in the DXMS experiments (Francisella tularensis, strain not …, UniProt Q5NEE1); assay: HDX-MS; conditions: both partners purified
T3 construct: copies: 14

[5] = biological target: T4, Francisella tularensis SchuS4 recombinant GroEL with N-terminal His tag (Francisella tularensis subsp. …, UniProt Q5NEE1); assay: Western blot; conditions: one partner purified
T4 construct: source: E. coli BL21(DE3)pLysS, pET14b, IPTG induced, in BugBuster lysate; not shown: His6, N-terminal, kept

[6] = biological target: GroEL of Francisella tularensis LVS, endogenous (Francisella tularensis subsp. …, UniProt P94798, strain); assay: competition Western blot; conditions: one partner purified
[7] = biological target: T4, Francisella tularensis SchuS4 …; assay: ELISA; conditions: one partner purified
[8] = biological target: T1, Escherichia coli GroEL, endogenous; assay: Western blot; conditions: one partner purified

Row | Binder | binding result [1] | binding result [2] | binding result [3] | binding result [4] | binding result [5] | binding result [6] | binding result [7] | binding result [8]
1 | B1 | no binding | binds | binds | binds | binds | binds |  | 
2 | B2 |  |  |  | binds |  |  |  | 
3 | B3 |  | binds | binds | binds |  | binds | binds | binds
4 | B4 |  |  |  | binds |  |  |  | 
